Consider six molecules from US20230106715A1 (BIOSION, published 2023).

Substitutions are numbered along the chain they refer to.

Assay [1] concerns the target T1, cynomolgus monkey Siglec15-his protein (cynomolgus monkey).
T1 construct: In house made; also called Cynomolgus Siglec15-his; cynomolgus Siglec15
T1 chain: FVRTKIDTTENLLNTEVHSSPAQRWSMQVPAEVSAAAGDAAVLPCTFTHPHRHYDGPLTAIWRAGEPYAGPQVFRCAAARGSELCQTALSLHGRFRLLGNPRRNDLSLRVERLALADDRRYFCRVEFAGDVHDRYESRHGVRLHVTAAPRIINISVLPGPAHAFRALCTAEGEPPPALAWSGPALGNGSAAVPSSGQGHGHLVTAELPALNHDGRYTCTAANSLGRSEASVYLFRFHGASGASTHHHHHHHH
The assay can be described thus: indirect ELISA on coated cynomolgus Siglec15-his. How it is done: The anti-Siglec15 antibodies' cross-reactions to cynomolgus or mouse Siglec15 proteins were measured. Briefly, 96-well micro plates were coated with 100 μl of 2 μg/ml cynomolgus Siglec15-his protein (in house made with SEQ ID NO: 21), or 2 μg/ml mouse Siglec15-his protein (in house made with SEQ ID NO: 22) in carbonate/bicarbonate buffer (pH 9.6) for 2 hours at 37° C. ELISA plates were washed once with wash buffer (PBS+0.05% v/v Tween-20, PBST) and then blocked with 200 μl/well blocking buffer (5% w/v non-fatty milk in PBST) overnight at 4° C. Plates were washed 4 times and incubated with 100 μl serially diluted anti-Siglec15 antibodies of the disclosure or controls (starting at 66.7 nM, 5-fold serial dilution in PBST with 2.5% w/v non-fatty milk) for 40 minutes at 37° C. […] The reaction was stopped 4 minutes later at room temperature with 50 μl 1M H₂SO₄, and the absorbance of each well was read on a microplate reader using dual wavelength mode with 450 nm for TMB and 630 nm as the reference wavelength, then the OD (450-630) values were plotted against antibody concentration. Data was analyzed using Graphpad Prism software and EC₅₀ values were reported.
In general terms: In an ELISA, binding on a coated surface is turned into a signal by an enzyme label.

For assay [2], the target named is T2, human Siglec15-Fc protein (human).
T2 construct: In house made; also called recombinant human Siglec15 protein with human IgG1 Fc at the C-terminus
The assay can be described thus: competitive ELISA: biotin-labeled human Siglec15-Fc in solution, competitor coated benchmark. As for the experimental part: (§1) The abilities of the anti-Siglec15 antibodies of the disclosure to block benchmark-human Siglec15 binding were measured in a competitive ELISA assay. Briefly, the benchmark was coated on 96-well micro plates at 2 μg/mL in PBS, 100 μl per well, and incubated for 2 hours at 37° C. Then plates were washed once with wash buffer, and blocked with 5% w/v non-fatty milk in PBST overnight at 4° C. The next day, the anti-Siglec15 antibodies of the disclosure or controls were diluted with biotin labeled human Siglec15-Fc protein (prepared in-house with SEQ ID NO: 19, 37 ng/ml in PBST with 2.5% w/v non-fatty milk), starting at 80 nM with a 4-fold serial dilution, and incubated at room temperature for 40 minutes. After plate washing 4 times, the antibody/Siglec15-Fc mixtures were added to benchmark coated plates, 100 μl per well. After incubation at 37° C. for 40 minutes, plates were washed 4 times again using wash buffer. Then the plates were added and incubated with 100 μl/well streptavidin conjugated HRP for 40 minutes at 37° C. […] Finally, TMB was added and the reaction was stopped using 1M H₂SO₄, and the absorbance of each well was read on a microplate reader using dual wavelength mode with 450 nm for TMB and 630 nm as the reference wavelength, then the OD (450-630) values were plotted against antibody concentration. Data was analyzed using Graphpad Prism software and IC₅₀ values were reported.

Assay [3] addresses T2, human Siglec15-Fc protein. Nature of the assay: competitive ELISA: biotin-labeled human Siglec15-Fc in solution, competitor coated benchmark; curve levels off at OD about 0.55, inhibition incomplete. As for the experimental part:
as §1

In assay [4] the target is T3, recombinant human Siglec15-his protein (human, UniProt Q6ZMC9 20-263).
T3 construct: In house made; Biotin-labeled in the capture ELISA
T3 sequence: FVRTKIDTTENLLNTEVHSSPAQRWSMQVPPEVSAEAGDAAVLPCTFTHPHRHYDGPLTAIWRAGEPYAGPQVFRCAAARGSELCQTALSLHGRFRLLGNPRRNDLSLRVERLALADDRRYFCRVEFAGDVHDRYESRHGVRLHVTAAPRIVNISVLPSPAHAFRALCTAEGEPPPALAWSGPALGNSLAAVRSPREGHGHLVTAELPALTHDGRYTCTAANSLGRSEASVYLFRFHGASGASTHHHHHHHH
Nature of the assay: SPR Biacore T200, antibody captured by anti-mouse IgG, antigen as analyte, 1:1 fit. How it is done:
(§2) Briefly, goat anti-mouse IgG (GE healthcare, Cat #BR100838, Mouse Antibody Capture Kit) was covalently linked to a CM5 chip (carboxy methyl dextran coated chip from GE healthcare, Cat #BR100530) via primary amines using a standard amine coupling kit (GE healthcare, Pittsburgh, Pa., USA) provided by Biacore. Un-reacted moieties on the biosensor surface were blocked with ethanolamine. The purified mouse anti-Siglec15 antibodies of the disclosure at the concentration of 13.3 nM, were respectively flowed onto the chip at a flow rate of 10 μL/min. Then, serially diluted human Siglec15-his protein (in house made, amino acid sequence set forth in SEQ ID NO: 20), cynomolgus monkey Siglec15-his protein (in house made, amino acid sequence set forth in SEQ ID NO: 21), or mouse Siglec15-his protein (in house made, amino acid sequence set forth in SEQ ID NO: 22), 2-fold dilution in HBS-EP⁺ buffer (provided by Biacore) starting at 80 nM, were flowed onto the chip at a flow rate of 30 μL/min. The antigen-antibody association kinetics was followed for 2 minutes and the dissociation kinetics was followed for 10 minutes. The association and dissociation curves were fit to a 1:1 Langmuir binding model using BIAcore evaluation software.
On the technique in general: SPR reads the build-up and loss of mass on a sensor chip optically.

In assay [5] the target is T1, cynomolgus monkey Siglec15-his protein. The assay is described as above. How it is done:
as §2

B1: anti-Siglec15 benchmark (ch5G12) (antibody, human IgG1, kappa, V domains shown)
VH: QVQLQQPGAELVKPGASVKMSCKASGYTFTSYWITWVIQRPGQGLEWIGDIYCGSDTMHYNEKFKNKATLTVDTSSSTAYMQLSSLTSEDSAVYYCARWWDYGSSYDYFDYWGQGTTLTVSS
VL: DIKMTQSPSSMYASLGERVTITCKASQDINSYLSWFQQKPGKSPKTLIYRANRLVDGVPSRFSGSGSGQDYSLTISSLEYEDMGIYYCLQYDEFPYTFGGGTKLEIKR
notes: ch5G12 (US 20190202912A1); also called BM; Siglec15-ch5G9
For B1, in assay [1], the EC50 (usually the concentration that produces a half-maximal response) came out at 307 pM. The concentration for half-maximal inhibition (IC50) (usually the concentration needed to halve the response being measured) in assay [2] came to 253 pM.

B2: A2A5C7E8 (antibody, V domains shown)
VH: EVQLVQSGAEVKKPGESLRISCKGSGYSFTTYWISWVRQMPGKGLEWMGLIDPSDSYTNYSPSFQGHVTISTDKSISTAYLQWSSLKASDTAMYYCARGGYYGSEEDYWGQGTLVTVSS
VL: EIVLTQSPGTLSLSPGERATLSCRASQSVSSSRLAWFQQKSGQAPRLLIFDASSRATGIPDRFSGSGSGTDFTLTISRLEPEDFAVYYCQQYGSSPRTFGQGTKVEFK
notes: Fully human antibody from transgenic mouse hybridoma; also called A2A5C7E8-1
Take B2: in assay [2], the IC50 was 83.6 pM.

B3: A1E10G7H9 (antibody, V domains shown)
VH: QVQLQESGPGLVKPSGTLSLTCAVSGGSISSSNWWHWVRQPPGKGLEWIGEIYHSGNTNYKPSLKSRVTISVDKSKNQFSLKLSSVTAADTAVYYCARDEGNGWSNAFDIWGQGTMVTVSS
VL: ENVLTQSPGTLSLSPGERVTLSCRASQSVSSSYLAWYQQKPGQAPRFLIYGASGGATGIPDRFSGSGSGTDFTLTISRLEPEDFAVYYCQQYGSSPITFGQGTRLEIK
notes: Fully human antibody from transgenic mouse hybridoma
Take B3: the 50% inhibitory concentration (IC50) in assay [3] was around 77.7 pM.

B4: B2D7H7A3C1 (antibody, V domains shown)
VH: QVQLQQSGAELVRPGTSVQMSCKAAGYTFTNYWIGWVKQRPGHGLEWVGDIHPGINYTNNNEKFRGKATLTADTSSNTAYMQLRGLTSDDSAIYYCARVDYDYDGSYIMDYWGQGTSVTVSS
VL: QIVLSQSPALLSASPGEKVTMTCRASSSVSYMYWYQQKPGSSPKPWIYATSNLTSGVPARFSGSGSGTSYSLTISRVEAEDAATYFCQQWNSKPWTFGGGSKLEIR
notes: Mouse monoclonal antibody from hybridoma; also called mouse B2D7H7A3C1
As to B4, in assay [4], the Kd (usually the equilibrium constant for the complex coming apart) is 35.2 pM; the dissociation rate constant (koff) (as a rule, a measure of how fast the partners let go of each other) worked out at 5.46e-05 s⁻¹; the on-rate constant (kon) (usually a measure of how fast the partners come together) was 1.55e+06 M⁻¹ s⁻¹. In assay [5], this molecule came in with a Kd of 476 pM, a koff of 0.000338 s⁻¹ and a kon of 711000 M⁻¹ s⁻¹.

B5: B2H2H1H7 (antibody, V domains shown)
VH: B4 VH with N77S
VL: B4 VL with V3I, K102R
notes: Mouse monoclonal antibody from hybridoma; also called mouse B2H2H1H7; B2H2H1A7
B5: in assay [4], the Kd was 16 pM, the koff is 3.18e-05 s⁻¹ and the kon is 1.99e+06 M⁻¹ s⁻¹. Also, in assay [5], binding was characterised by a dissociation constant (Kd) of 405 pM, the koff was 0.000352 s⁻¹ and the kon was found to be 869000 M⁻¹ s⁻¹.

B6: B2G12H3E8 (antibody, V domains shown)
VH: B4 VH with Q5K, A25V, N77S
VL: B4 VL
notes: Mouse monoclonal antibody from hybridoma; also called mouse B2G12H3E8
Regarding B6, in assay [4], the Kd is 8.58 pM, the dissociation rate constant (koff) is 1.76e-05 s⁻¹ and the kon was determined as 2.05e+06 M⁻¹ s⁻¹. For the same molecule, in assay [5], the Kd is 372 pM, the koff came to 0.000371 s⁻¹ and the kon is 996000 M⁻¹ s⁻¹.
